Measured values published in patent publication US20030140381, “Genes and regulatory DNA sequences associated with stress-related gene expression in plants and methods of using the same” (Pioneer Hi-Bred International, Inc., published 2003).

B1: Adh1 promoter element (-246 to -229) (dsDNA)
DNA 1: CGCCGCCACCGCTTGGCG
DNA 2: CGCCAAGCGGTGGCGGCG
B2: ZmABI4 upstream element (-175 to -158) (dsDNA)
DNA 1: TTTGACCACCGCCCCTCT
DNA 2: AGAGGGGCGGTGGTCAAA

Experiments:
[1] = biological target: T1, ZmABI4 (maize ABI4, AP2-domain transcription factor) (Zea mays); test: EMSA; described as high affinity
[2] = biological target: T1, ZmABI4 (maize ABI4, AP2-domain …); test: EMSA

T1 sequence (chain, as listed by the source): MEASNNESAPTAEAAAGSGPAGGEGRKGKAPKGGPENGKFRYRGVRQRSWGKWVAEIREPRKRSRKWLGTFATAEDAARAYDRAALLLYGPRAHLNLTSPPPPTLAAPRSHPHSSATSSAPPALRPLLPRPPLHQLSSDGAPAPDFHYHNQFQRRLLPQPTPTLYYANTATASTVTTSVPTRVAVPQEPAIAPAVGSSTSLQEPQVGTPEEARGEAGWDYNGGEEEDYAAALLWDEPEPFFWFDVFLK

| Binder | binding result [1] | binding result [2] |
| --- | --- | --- |
| B1 | binds |  |
| B2 |  | binds |
